Measurements reported in patent US20150125491A1 (AURIGENE DISCOVERY TECHNOLOGIES, published 2015).
Bridges are numbered along the chain shown (N, C = ends). Where no end group is shown, it is not given here. [ ]: non-standard residue; d: D form. Ahx = NCCCCCC(=O)O

B1: Compound 15 (peptide)
peptide: cyclo(SNTSESF[Ahx]Q)
SMILES: C[C@@H](O)[C@@H]1NC(=O)[C@H](CC(N)=O)NC(=O)[C@H](CO)NC(=O)[C@H](CCC(N)=O)NC(=O)CCCCCNC(=O)[C@H](Cc2ccccc2)NC(=O)[C@H](CO)NC(=O)[C@H](CCC(=O)O)NC(=O)[C@H](CO)NC1=O
B2: Compound 2 (peptide)
peptide: SETSKSF-NH2
modifications: lactam 2-5; N-terminus assumed
SMILES: C[C@@H](O)[C@@H]1NC(=O)[C@@H](NC(=O)[C@@H](N)CO)CCC(=O)NCCCC[C@@H](C(=O)N[C@@H](CO)C(=O)N[C@@H](Cc2ccccc2)C(N)=O)NC(=O)[C@H](CO)NC1=O
B3: Compound 14 (peptide)
peptide: SNTSESFQ
modifications: cyclised between the N-terminal amino group of Ser and the alpha-carboxyl of the C-terminal Glu, which was attached to Rink amide resin through its gamma-carboxyl (gives Gln)

biological target: PD-1 on mouse splenocytes (mouse) (UniProt Q02242); assay: cell-based or functional assay
Sequence (Q02242 25-288): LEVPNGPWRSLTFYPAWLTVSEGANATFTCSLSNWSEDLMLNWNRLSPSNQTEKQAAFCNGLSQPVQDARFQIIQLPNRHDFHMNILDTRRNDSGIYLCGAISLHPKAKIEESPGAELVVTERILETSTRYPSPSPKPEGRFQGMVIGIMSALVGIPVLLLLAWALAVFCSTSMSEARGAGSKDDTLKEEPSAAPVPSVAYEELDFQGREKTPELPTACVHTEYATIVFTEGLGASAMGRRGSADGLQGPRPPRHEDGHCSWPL

For “PD-L1 expressed on MDA-MB-231 cells (from UniProt Q9NZQ7 19-290) (ligand)”, the % Splenocyte proliferation (Background proliferation: Splenocytes+anti-CD3/CD28+PDL or Tumor) was 13%.

biological target: PD-L1 expressed on MDA-MB-231 cells (UniProt Q9NZQ7 19-290, limits assumed); assay: cell-based or functional assay
Sequence (Q9NZQ7 19-290 limits assumed): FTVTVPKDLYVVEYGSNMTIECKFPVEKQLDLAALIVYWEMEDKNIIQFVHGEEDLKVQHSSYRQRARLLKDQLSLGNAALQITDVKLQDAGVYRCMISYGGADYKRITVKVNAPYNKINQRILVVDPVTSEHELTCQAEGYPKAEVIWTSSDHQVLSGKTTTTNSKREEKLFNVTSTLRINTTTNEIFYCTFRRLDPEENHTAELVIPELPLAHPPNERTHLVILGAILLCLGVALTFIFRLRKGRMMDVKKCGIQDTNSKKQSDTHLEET

Point of comparison: IETSKSF (not fully specified; also: cyclic, bridge and C-terminus not given here) [Compound 6], “% Splenocyte proliferation” value 55%. Against it:
- cyclo([Ahx]SETSKSFQ) [Compound 17] — lower, 42%
- SETSKSFE (not fully specified; also: cyclic, bridge and C-terminus not given here) [Compound 20] — lower, 36%
- B1 — lower, 53%
- SETSKSI (not fully specified; also: cyclic, bridge and C-terminus not given here) [Compound 5] — lower, 42%
- B2 — higher, 57%
- EETSKSF (not fully specified; also: cyclic, bridge and C-terminus not given here) [Compound 4] — lower, 36%
- B3 — the same, 55%
- IEMSKSQ (not fully specified; also: cyclic, bridge and C-terminus not given here) [Compound 11] — lower, 54%
- SKTSESF-NH2 (lactam 2-5) [Compound 1] — higher, 60%
- SETSKVF (not fully specified; also: cyclic, bridge and C-terminus not given here) [Compound 7] — lower, 52%
- SETSKSFQ (not fully specified; also: cyclic, bridge and C-terminus not given here) [Compound 16] — lower, 36%
- IEMSKVQ-OH (lactam 2-5) [Compound 12] — lower, 39%

Point of comparison: SETSKSFQ (not fully specified; also: cyclic, bridge and C-terminus not given here) [Compound 16], Fold induction 2.8 fold. Against it:
- cyclo([Ahx]SETSKSFQ) [Compound 17] — higher, 3.2 fold
- SETSKSFE (not fully specified; also: cyclic, bridge and C-terminus not given here) [Compound 20] — the same, 2.8 fold
- B1 — higher, 4 fold
- SETSKSI (not fully specified; also: cyclic, bridge and C-terminus not given here) [Compound 5] — higher, 3.2 fold
- B2 — higher, 4.3 fold
- EETSKSF (not fully specified; also: cyclic, bridge and C-terminus not given here) [Compound 4] — the same, 2.8 fold
- IETSKSF (not fully specified; also: cyclic, bridge and C-terminus not given here) [Compound 6] — higher, 4.2 fold
- B3 — higher, 4.2 fold
- IEMSKSQ (not fully specified; also: cyclic, bridge and C-terminus not given here) [Compound 11] — higher, 4.2 fold
- SKTSESF-NH2 (lactam 2-5) [Compound 1] — higher, 4.6 fold
- SETSKVF (not fully specified; also: cyclic, bridge and C-terminus not given here) [Compound 7] — higher, 4 fold
- IEMSKVQ-OH (lactam 2-5) [Compound 12] — higher, 3 fold
